In patent US20190134153A1, “IMMUNOMODULATORY EFFECT OF INHALED KINASE INHIBITOR PEPTIDES IN LUNG” (MOERAE MATRIX, INC., priority 2017, published 2019):

Key:
Test in all cases: Kinase Profiling Assay
Format in all cases: biochemical
Conditions in all cases: 100 μM
EphB3(h) = biological target: T1, EphB3(h) (Homo sapiens, UniProt P54753)
T1 sequence (P54753 34-998): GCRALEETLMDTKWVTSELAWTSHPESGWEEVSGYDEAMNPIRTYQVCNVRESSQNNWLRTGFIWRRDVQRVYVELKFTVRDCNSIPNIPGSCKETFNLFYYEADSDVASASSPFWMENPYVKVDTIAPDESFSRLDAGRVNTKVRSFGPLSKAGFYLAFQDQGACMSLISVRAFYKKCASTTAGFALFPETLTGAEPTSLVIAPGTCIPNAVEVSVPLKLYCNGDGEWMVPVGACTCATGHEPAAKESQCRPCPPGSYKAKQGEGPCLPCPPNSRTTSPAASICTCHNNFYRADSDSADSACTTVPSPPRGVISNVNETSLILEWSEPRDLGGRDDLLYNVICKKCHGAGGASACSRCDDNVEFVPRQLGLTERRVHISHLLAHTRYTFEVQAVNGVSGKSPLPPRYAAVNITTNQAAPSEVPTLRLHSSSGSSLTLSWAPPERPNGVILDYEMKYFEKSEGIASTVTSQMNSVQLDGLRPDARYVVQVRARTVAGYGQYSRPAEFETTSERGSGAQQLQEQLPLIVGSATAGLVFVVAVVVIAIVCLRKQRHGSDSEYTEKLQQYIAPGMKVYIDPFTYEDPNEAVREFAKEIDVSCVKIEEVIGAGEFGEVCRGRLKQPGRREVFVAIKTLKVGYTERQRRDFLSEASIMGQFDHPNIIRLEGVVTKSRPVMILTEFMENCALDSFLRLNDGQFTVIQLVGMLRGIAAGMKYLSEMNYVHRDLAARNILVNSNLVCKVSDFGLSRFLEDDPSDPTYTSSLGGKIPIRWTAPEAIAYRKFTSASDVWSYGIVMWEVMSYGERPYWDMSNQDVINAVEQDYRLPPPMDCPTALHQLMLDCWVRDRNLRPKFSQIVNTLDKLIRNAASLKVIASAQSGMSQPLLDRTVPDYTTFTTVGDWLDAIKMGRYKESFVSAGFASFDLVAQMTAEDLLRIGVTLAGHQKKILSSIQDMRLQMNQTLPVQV

ErbB4(h) = ErbB4(h) (Homo sapiens, UniProt Q15303)
Flt3(h) = Flt3(h) (Homo sapiens, UniProt P36888)
Fyn(h) = Fyn(h) (Homo sapiens, UniProt P06241)
MELK(h) = MELK(h) (Homo sapiens, UniProt Q14680)
MSSK1(h) = MSSK1(h) (Homo sapiens, UniProt Q9UPE1)
mTOR/FKBP12(h) = mTOR/FKBP12(h) (Homo sapiens, UniProt P42345)
PKBα(h) = PKBα(h) (Homo sapiens, UniProt P31749)
PKBβ(h) = PKBβ(h) (Homo sapiens, UniProt P31751)
PKCζ(h) = biological target: T2, PKCζ(h) (Homo sapiens, UniProt Q05513)
T2 sequence (Q05513 1-592): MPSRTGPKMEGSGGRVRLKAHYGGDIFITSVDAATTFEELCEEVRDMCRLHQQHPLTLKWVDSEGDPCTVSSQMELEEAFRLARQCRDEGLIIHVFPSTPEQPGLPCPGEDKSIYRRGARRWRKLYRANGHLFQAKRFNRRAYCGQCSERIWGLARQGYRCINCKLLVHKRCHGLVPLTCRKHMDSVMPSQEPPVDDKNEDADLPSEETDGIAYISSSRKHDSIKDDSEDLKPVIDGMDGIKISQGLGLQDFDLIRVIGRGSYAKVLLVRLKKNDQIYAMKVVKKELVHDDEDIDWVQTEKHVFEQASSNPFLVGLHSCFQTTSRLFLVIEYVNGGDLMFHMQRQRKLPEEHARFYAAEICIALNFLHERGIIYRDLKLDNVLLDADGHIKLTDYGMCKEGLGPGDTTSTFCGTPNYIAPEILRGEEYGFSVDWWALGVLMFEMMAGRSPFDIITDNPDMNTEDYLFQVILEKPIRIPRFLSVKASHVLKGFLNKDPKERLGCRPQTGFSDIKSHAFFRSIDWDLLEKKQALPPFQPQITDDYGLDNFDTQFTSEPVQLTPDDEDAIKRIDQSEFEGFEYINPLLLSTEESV

PRK2(h) = PRK2(h) (Homo sapiens, UniProt Q16513)
Pyk2(h) = Pyk2(h) (Homo sapiens, UniProt Q14289)
TLK2(h) = TLK2(h) (Homo sapiens, UniProt Q86UE8)
TAK1(h) = biological target: T3, TAK1(h) (Homo sapiens, UniProt O43318)
T3 sequence (O43318 1-303 limits assumed): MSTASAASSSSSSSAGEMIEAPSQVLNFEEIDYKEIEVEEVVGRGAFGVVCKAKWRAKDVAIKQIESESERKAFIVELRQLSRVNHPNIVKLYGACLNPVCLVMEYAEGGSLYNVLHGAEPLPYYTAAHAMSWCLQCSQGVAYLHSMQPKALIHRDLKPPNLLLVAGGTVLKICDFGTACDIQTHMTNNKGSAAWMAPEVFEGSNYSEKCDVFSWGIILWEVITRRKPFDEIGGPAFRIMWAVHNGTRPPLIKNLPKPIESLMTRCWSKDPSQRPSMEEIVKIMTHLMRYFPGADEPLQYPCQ

Chain of PRK2(h) (Q16513 whole entry): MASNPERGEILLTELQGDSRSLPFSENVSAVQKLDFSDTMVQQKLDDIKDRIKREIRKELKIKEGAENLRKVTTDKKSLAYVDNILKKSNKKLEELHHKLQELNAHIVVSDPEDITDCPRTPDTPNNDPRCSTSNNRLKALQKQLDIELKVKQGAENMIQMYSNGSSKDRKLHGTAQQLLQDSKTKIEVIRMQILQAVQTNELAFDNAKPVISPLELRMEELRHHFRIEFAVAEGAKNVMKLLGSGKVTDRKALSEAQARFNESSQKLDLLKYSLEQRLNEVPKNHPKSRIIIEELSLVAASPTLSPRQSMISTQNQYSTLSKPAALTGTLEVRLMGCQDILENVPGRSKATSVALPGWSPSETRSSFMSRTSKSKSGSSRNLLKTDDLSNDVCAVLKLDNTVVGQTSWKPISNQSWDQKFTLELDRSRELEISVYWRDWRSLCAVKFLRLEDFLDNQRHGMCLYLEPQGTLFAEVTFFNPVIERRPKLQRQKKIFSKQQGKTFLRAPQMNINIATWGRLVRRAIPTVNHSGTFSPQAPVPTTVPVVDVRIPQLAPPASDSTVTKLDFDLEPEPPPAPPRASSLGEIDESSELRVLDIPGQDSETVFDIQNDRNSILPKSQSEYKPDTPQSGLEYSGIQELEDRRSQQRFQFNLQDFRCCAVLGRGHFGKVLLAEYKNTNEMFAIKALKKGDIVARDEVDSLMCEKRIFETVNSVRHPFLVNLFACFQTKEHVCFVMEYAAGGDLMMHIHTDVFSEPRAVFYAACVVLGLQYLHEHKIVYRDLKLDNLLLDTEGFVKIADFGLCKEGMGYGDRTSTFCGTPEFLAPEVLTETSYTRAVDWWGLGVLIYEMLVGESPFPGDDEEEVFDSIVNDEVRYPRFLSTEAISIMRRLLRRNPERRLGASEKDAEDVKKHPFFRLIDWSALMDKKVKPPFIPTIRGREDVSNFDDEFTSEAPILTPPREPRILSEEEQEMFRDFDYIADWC
Chain of mTOR/FKBP12(h) (P42345 1362-2549 limits assumed): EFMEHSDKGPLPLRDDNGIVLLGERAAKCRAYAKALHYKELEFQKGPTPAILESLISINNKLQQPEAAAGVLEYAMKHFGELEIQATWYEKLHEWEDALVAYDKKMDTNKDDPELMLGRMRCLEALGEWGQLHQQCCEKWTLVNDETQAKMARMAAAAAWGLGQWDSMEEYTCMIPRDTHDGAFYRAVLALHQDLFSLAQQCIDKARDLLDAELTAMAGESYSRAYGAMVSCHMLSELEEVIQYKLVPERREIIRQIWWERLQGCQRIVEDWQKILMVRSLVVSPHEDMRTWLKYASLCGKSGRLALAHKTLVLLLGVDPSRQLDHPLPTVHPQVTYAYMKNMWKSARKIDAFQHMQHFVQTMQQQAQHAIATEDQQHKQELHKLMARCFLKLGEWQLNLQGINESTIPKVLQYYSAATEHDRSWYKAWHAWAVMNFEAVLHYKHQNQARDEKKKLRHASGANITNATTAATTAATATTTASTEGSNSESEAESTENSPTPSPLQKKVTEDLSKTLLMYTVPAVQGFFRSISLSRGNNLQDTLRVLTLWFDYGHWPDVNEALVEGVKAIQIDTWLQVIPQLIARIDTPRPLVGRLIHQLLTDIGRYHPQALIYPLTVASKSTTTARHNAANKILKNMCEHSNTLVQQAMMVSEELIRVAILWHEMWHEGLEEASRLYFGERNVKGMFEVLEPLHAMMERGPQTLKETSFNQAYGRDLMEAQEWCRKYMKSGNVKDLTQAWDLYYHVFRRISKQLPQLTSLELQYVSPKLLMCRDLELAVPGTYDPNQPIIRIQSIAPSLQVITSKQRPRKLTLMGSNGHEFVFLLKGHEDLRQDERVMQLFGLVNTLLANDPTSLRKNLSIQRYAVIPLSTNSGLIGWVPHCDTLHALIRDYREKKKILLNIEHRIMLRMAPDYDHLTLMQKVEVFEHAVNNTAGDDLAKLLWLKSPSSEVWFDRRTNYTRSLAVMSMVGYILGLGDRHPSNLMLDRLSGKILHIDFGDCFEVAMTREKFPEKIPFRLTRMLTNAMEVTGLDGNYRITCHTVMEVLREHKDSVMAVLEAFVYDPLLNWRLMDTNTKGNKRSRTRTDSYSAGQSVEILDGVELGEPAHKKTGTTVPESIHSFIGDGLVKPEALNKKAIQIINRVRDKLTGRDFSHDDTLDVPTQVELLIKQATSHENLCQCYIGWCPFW
Chain of PKBβ(h) (P31751 whole entry): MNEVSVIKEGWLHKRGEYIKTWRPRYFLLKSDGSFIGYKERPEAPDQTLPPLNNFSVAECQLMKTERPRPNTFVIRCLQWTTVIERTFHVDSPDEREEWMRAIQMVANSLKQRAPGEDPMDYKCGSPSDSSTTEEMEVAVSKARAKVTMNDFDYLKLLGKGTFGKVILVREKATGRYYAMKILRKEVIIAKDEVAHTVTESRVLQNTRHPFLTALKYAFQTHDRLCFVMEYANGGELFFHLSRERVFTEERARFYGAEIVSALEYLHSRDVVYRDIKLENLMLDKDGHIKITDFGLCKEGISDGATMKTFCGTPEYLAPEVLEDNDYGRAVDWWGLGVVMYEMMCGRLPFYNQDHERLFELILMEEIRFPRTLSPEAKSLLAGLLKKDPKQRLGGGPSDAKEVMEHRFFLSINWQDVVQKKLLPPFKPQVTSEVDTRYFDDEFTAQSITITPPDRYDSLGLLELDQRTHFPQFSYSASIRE
Chain of PKBα(h) (P31749 whole entry): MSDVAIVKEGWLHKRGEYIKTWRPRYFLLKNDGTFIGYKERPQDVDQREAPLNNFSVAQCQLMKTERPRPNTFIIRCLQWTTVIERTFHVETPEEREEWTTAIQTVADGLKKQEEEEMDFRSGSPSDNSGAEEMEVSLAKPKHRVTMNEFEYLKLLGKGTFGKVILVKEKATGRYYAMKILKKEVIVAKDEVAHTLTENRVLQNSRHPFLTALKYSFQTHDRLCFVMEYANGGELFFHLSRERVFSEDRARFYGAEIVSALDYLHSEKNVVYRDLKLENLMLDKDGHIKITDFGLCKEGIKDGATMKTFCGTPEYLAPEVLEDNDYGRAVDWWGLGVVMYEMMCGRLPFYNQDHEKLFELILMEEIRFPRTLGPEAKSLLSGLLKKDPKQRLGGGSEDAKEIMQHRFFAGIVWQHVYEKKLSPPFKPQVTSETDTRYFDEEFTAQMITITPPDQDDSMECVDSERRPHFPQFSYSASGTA
Chain of Pyk2(h) (Q14289 whole entry): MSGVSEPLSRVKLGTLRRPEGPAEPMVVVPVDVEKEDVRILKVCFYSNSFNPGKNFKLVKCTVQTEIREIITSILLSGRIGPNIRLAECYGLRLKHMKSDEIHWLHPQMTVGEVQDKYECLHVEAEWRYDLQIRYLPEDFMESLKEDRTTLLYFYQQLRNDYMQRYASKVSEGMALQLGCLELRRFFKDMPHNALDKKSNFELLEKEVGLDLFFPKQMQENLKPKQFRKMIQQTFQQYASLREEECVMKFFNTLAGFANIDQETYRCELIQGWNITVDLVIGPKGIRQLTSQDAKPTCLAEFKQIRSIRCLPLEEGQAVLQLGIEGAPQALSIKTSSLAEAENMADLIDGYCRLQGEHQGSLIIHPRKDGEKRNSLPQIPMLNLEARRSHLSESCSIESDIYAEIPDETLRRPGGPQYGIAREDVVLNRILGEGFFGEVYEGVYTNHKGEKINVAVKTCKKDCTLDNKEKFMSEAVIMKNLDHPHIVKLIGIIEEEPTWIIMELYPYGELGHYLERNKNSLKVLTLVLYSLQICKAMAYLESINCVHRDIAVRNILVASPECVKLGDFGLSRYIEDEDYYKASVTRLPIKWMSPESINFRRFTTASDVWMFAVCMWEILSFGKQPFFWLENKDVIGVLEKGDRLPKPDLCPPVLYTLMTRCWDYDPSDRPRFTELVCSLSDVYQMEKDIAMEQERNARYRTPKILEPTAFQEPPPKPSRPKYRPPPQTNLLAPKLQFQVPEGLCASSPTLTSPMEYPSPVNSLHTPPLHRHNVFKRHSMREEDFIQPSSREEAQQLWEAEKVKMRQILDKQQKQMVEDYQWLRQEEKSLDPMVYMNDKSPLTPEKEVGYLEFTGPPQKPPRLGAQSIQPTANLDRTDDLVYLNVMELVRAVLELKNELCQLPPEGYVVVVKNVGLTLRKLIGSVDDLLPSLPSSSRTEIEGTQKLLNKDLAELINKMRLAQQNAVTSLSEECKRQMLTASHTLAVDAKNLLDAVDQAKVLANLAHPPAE
Chain of MSSK1(h) (Q9UPE1 whole entry): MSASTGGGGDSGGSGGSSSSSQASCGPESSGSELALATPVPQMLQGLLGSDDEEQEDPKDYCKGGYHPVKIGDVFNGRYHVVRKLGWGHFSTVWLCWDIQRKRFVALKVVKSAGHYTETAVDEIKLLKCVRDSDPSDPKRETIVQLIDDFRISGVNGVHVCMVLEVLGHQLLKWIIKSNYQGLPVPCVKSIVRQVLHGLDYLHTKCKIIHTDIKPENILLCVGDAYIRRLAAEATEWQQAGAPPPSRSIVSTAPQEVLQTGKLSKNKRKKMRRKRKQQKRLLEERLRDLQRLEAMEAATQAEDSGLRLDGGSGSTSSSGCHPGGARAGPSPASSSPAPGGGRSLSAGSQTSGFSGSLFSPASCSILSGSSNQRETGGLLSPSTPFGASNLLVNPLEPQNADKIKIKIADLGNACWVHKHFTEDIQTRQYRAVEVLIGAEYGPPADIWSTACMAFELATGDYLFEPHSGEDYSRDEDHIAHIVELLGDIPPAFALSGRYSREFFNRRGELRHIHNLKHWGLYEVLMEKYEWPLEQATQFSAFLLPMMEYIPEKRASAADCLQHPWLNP

## HRRIKAWLKKIKALARQLGVAA [MMI-0500]
EphB3(h)
  % activity: 79%
ErbB4(h)
  % activity: 2%
Flt3(h)
  % activity: 17%
Fyn(h)
  % activity: 83%
MELK(h)
  % activity: 0%
MSSK1(h)
  % activity: 22%
mTOR/FKBP12(h)
  % activity: 140%
PKBα(h)
  % activity: 30%
PKBβ(h)
  % activity: 21%
PKCζ(h)
  % activity: 7%
PRK2(h)
  % activity: 7%
Pyk2(h)
  % activity: 46%
TLK2(h)
  % activity: 133%

## YARAAARQARAKALNRQLGVA [MMI-0200]
EphB3(h)
  % activity: 128%
ErbB4(h)
  % activity: 82%
Flt3(h)
  % activity: 99%
Fyn(h)
  % activity: 75%
MELK(h)
  % activity: 59%
MSSK1(h)
  % activity: 100%
mTOR/FKBP12(h)
  % activity: 118%
PKBα(h)
  % activity: 110%
PKBβ(h)
  % activity: 250%
PKCζ(h)
  % activity: 98%
PRK2(h)
  % activity: 74%
Pyk2(h)
  % activity: 127%
TAK1(h)
  % activity: 124%
TLK2(h)
  % activity: 129%

## KAFAKLAARLYRKALARQLGVAA [MMI-0400]
EphB3(h)
  % activity: 47%
ErbB4(h)
  % activity: 0%
Flt3(h)
  % activity: 18%
Fyn(h)
  % activity: 54%
MELK(h)
  % activity: 17%
MSSK1(h)
  % activity: 75%
mTOR/FKBP12(h)
  % activity: 125%
PKBα(h)
  % activity: 67%
PKBβ(h)
  % activity: 98%
PKCζ(h)
  % activity: 75%
PRK2(h)
  % activity: 27%
Pyk2(h)
  % activity: 34%
TAK1(h)
  % activity: 177%
TLK2(h)
  % activity: 151%

## FAKLAARLYRKALARQLGVAA [MMI-0300]
EphB3(h)
  % activity: 62%
ErbB4(h)
  % activity: 40%
Flt3(h)
  % activity: 84%
Fyn(h)
  % activity: 74%
MELK(h)
  % activity: 16%
MSSK1(h)
  % activity: 77%
mTOR/FKBP12(h)
  % activity: 145%
PKBα(h)
  % activity: 57%
PKBβ(h)
  % activity: 84%
PKCζ(h)
  % activity: 81%
PRK2(h)
  % activity: 33%
Pyk2(h)
  % activity: 47%
TAK1(h)
  % activity: 122%
